B1: sp¦Q96I99¦SUCB2_HUMAN (protein, UniProt Q96I99 38-432, looked up)
Succinate--CoA ligase …: LNLQEYQSKKLMSDNGVRVQRFFVADTANEALEAAKRLNAKEIVLKAQILAGGRGKGVFNSGLKGGVHLTKDPNVVGQLAKQMIGYNLATKQTPKEGVKVNKVMVAEALDISRETYLAILMDRSCNGPVLVGSPQGGVDIEEVAASNPELIFKEQIDIFEGIKDSQAQRMAENLGFVGPLKSQAADQITKLYNLFLKIDATQVEVNPFGETPEGQVVCFDAKINFDDNAEFRQKDIFAMDDKSENEPIENEAAKYDLKYIGLDGNIACFVNGAGLAMATCDIIFLNGGKPANFLDLGGGVKEAQVYQAFKLLTADPKVEAILVNIFGGIVNCAIIANGITKACRELELKVPLVVRLEGTNVQEAQKILNNSGLPITSAIDLEDAAKKAVASVAKK
B2: sp¦Q04837¦SSBP_HUMAN (protein, UniProt Q04837 17-148, looked up)
Single-stranded DNA-binding …: ESETTTSLVLERSLNRVHLLGRVGQDPVLRQVEGKNPVTIFSLATNEMWRSGDSEVYQLGDVSQKTTWHRISVFRPGLRDVAYQYVKKGSRIYLEGKIDYGEYMDKNNVRRQATTIIADNIIFLSDQTKEKE
B3: sp¦P34897¦GLYM_HUMAN (protein, UniProt P34897 30-504, looked up)
Serine …: NAAQTQTGEANRGWTGQESLSDSDPEMWELLQREKDRQCRGLELIASENFCSRAALEALGSCLNNKYSEGYPGKRYYGGAEVVDEIELLCQRRALEAFDLDPAQWGVNVQPYSGSPANLAVYTALLQPHDRIMGLDLPDGGHLTHGYMSDVKRISATSIFFESMPYKLNPKTGLIDYNQLALTARLFRPRLIIAGTSAYARLIDYARMREVCDEVKAHLLADMAHISGLVAAKVIPSPFKHADIVTTTTHKTLRGARSGLIFYRKGVKAVDPKTGREIPYTFEDRINFAVFPSLQGGPHNHAIAAVAVALKQACTPMFREYSLQVLKNARAMADALLERGYSLVSGGTDNHLVLVDLRPKGLDGARAERVLELVSITANKNTCPGDRSAITPGGLRLGAPALTSRQFREDDFRRVVDFIDEGVNIGLEVKSKTAKLQDFKSFLLKDSETSQRLANLRQRVEQFARAFPMPGFDEH
B4: sp¦P56192¦SYMC_HUMAN (protein, UniProt P56192 1-900, looked up)
Methionine--tRNA ligase, …: MRLFVSDGVPGCLPVLAAAGRARGRAEVLISTVGPEDCVVPFLTRPKVPVLQLDSGNYLFSTSAICRYFFLLSGWEQDDLTNQWLEWEATELQPALSAALYYLVVQGKKGEDVLGSVRRALTHIDHSLSRQNCPFLAGETESLADIVLWGALYPLLQDPAYLPEELSALHSWFQTLSTQEPCQRAAETVLKQQGVLALRPYLQKQPQPSPAEGRAVTNEPEEEELATLSEEEIAMAVTAWEKGLESLPPLRPQQNPVLPVAGERNVLITSALPYVNNVPHLGNIIGCVLSADVFARYSRLRQWNTLYLCGTDEYGTATETKALEEGLTPQEICDKYHIIHADIYRWFNISFDIFGRTTTPQQTKITQDIFQQLLKRGFVLQDTVEQLRCEHCARFLADRFVEGVCPFCGYEEARGDQCDKCGKLINAVELKKPQCKVCRSCPVVQSSQHLFLDLPKLEKRLEEWLGRTLPGSDWTPNAQFITRSWLRDGLKPRCITRDLKWGTPVPLEGFEDKVFYVWFDATIGYLSITANYTDQWERWWKNPEQVDLYQFMAKDNVPFHSLVFPCSALGAEDNYTLVSHLIATEYLNYEDGKFSKSRGVGVFGDMAQDTGIPADIWRFYLLYIRPEGQDSAFSWTDLLLKNNSELLNNLGNFINRAGMFVSKFFGGYVPEMVLTPDDQRLLAHVTLELQHYHQLLEKVRIRDALRSILTISRHGNQYIQVNEPWKRIKGSEADRQRAGTVTGLAVNIAALLSVMLQPYMPTVSATIQAQLQLPPPACSILLTNFLCTLPAGHQIGTVSPLFQKLENDQIESLRQRFGGGQAKTSPKPAVVETVTTAKPQQIQALMDEVTKQGNIVRELKAQKADKNEVAAEVAKLLDLKKQLAVAEGKPPEAPKGKKKK
B5: sp¦P21912¦SDHB_HUMAN (protein, UniProt P21912 29-280, looked up)
Succinate dehydrogenase …: AQTAAATAPRIKKFAIYRWDPDKAGDKPHMQTYEVDLNKCGPMVLDALIKIKNEVDSTLTFRRSCREGICGSCAMNINGGNTLACTRRIDTNLNKVSKIYPLPHMYVIKDLVPDLSNFYAQYKSIEPYLKKKDESQEGKQQYLQSIEEREKLDGLYECILCACCSTSCPSYWWNGDKYLGPAVLMQAYRWMIDSRDDFTEERLAKLQDPFSLYRCHTIMNCTRTCPKGLNPGKAIAEIKKMMATYKEKKASV
B6: sp¦Q13895¦BYST_HUMAN (protein, UniProt Q13895 1-437, looked up)
Bystin: MPKFKAARGVGGQEKHAPLADQILAGNAVRAGVREKRRGRGTGEAEEEYVGPRLSRRILQQARQQQEELEAEHGTGDKPAAPRERTTRLGPRMPQDGSDDEDEEWPTLEKAATMTAAGHHAEVVVDPEDERAIEMFMNKNPPARRTLADIIMEKLTEKQTEVETVMSEVSGFPMPQLDPRVLEVYRGVREVLSKYRSGKLPKAFKIIPALSNWEQILYVTEPEAWTAAAMYQATRIFASNLKERMAQRFYNLVLLPRVRDDVAEYKRLNFHLYMALKKALFKPGAWFKGILIPLCESGTCTLREAIIVGSIITKCSIPVLHSSAAMLKIAEMEYSGANSIFLRLLLDKKYALPYRVLDALVFHFLGFRTEKRELPVLWHQCLLTLVQRYKADLATDQKEALLELLRLQPHPQLSPEIRRELQSAVPRDVEDVPITVE
B7: sp¦Q8TEX9¦IPO4_HUMAN (protein, UniProt Q8TEX9 1-1081, looked up)
Importin-4: MESAGLEQLLRELLLPDTERIRRATEQLQIVLRAPAALPALCDLLASAADPQIRQFAAVLTRRRLNTRWRRLAAEQRESLKSLILTALQRETEHCVSLSLAQLSATIFRKEGLEAWPQLLQLLQHSTHSPHSPEREMGLLLLSVVVTSRPEAFQPHHRELLRLLNETLGEVGSPGLLFYSLRTLTTMAPYLSTEDVPLARMLVPKLIMAMQTLIPIDEAKACEALEALDELLESEVPVITPYLSEVLTFCLEVARNVALGNAIRIRILCCLTFLVKVKSKALLKNRLLPPLLHTLFPIVAAEPPPGQLDPEDQDSEEEELEIELMGETPKHFAVQVVDMLALHLPPEKLCPQLMPMLEEALRSESPYQRKAGLLVLAVLSDGAGDHIRQRLLPPLLQIVCKGLEDPSQVVRNAALFALGQFSENLQPHISSYSREVMPLLLAYLKSVPLGHTHHLAKACYALENFVENLGPKVQPYLPELMECMLQLLRNPSSPRAKELAVSALGAIATAAQASLLPYFPAIMEHLREFLLTGREDLQPVQIQSLETLGVLARAVGEPMRPLAEECCQLGLGLCDQVDDPDLRRCTYSLFAALSGLMGEGLAPHLEQITTLMLLSLRSTEGIVPQYDGSSSFLLFDDESDGEEEEELMDEDVEEEDDSEISGYSVENAFFDEKEDTCAAVGEISVNTSVAFLPYMESVFEEVFKLLECPHLNVRKAAHEALGQFCCALHKACQSCPSEPNTAALQAALARVVPSYMQAVNRERERQVVMAVLEALTGVLRSCGTLTLKPPGRLAELCGVLKAVLQRKTACQDTDEEEEEEDDDQAEYDAMLLEHAGEAIPALAAAAGGDSFAPFFAGFLPLLVCKTKQGCTVAEKSFAVGTLAETIQGLGAASAQFVSRLLPVLLSTAQEADPEVRSNAIFGMGVLAEHGGHPAQEHFPKLLGLLFPLLARERHDRVRDNICGALARLLMASPTRKPEPQVLAALLHALPLKEDLEEWVTIGRLFSFLYQSSPDQVIDVAPELLRICSLILADNKIPPDTKAALLLLLTFLAKQHTDSFQAALGSLPVDKAQELQAVLGLS
B8: sp¦P55060¦XPO2_HUMAN (protein, UniProt P55060 1-971, looked up)
Exportin-2: MELSDANLQTLTEYLKKTLDPDPAIRRPAEKFLESVEGNQNYPLLLLTLLEKSQDNVIKVCASVTFKNYIKRNWRIVEDEPNKICEADRVAIKANIVHLMLSSPEQIQKQLSDAISIIGREDFPQKWPDLLTEMVNRFQSGDFHVINGVLRTAHSLFKRYRHEFKSNELWTEIKLVLDAFALPLTNLFKATIELCSTHANDASALRILFSSLILISKLFYSLNFQDLPEFFEDNMETWMNNFHTLLTLDNKLLQTDDEEEAGLLELLKSQICDNAALYAQKYDEEFQRYLPRFVTAIWNLLVTTGQEVKYDLLVSNAIQFLASVCERPHYKNLFEDQNTLTSICEKVIVPNMEFRAADEEAFEDNSEEYIRRDLEGSDIDTRRRAACDLVRGLCKFFEGPVTGIFSGYVNSMLQEYAKNPSVNWKHKDAAIYLVTSLASKAQTQKHGITQANELVNLTEFFVNHILPDLKSANVNEFPVLKADGIKYIMIFRNQVPKEHLLVSIPLLINHLQAESIVVHTYAAHALERLFTMRGPNNATLFTAAEIAPFVEILLTNLFKALTLPGSSENEYIMKAIMRSFSLLQEAIIPYIPTLITQLTQKLLAVSKNPSKPHFNHYMFEAICLSIRITCKANPAAVVNFEEALFLVFTEILQNDVQEFIPYVFQVMSLLLETHKNDIPSSYMALFPHLLQPVLWERTGNIPALVRLLQAFLERGSNTIASAAADKIPGLLGVFQKLIASKANDHQGFYLLNSIIEHMPPESVDQYRKQIFILLFQRLQNSKTTKFIKSFLVFINLYCIKYGALALQEIFDGIQPKMFGMVLEKIIIPEIQKVSGNVEKKICAVGITKLLTECPPMMDTEYTKLWTPLLQSLIGLFELPEDDTIPDEEHFIDIEDTPGYQTAFSQLAFAGKKEHDPVGQMVNNPKIHLAQSLHKLSTACPGRVPSMVSTSLNAEALQYLQGYLQAASVTLL
B9: sp¦Q13451¦FKBP5_HUMAN (protein, UniProt Q13451 1-457, looked up)
Peptidyl-prolyl cis-trans …: MTTDEGAKNNEESPTATVAEQGEDITSKKDRGVLKIVKRVGNGEETPMIGDKVYVHYKGKLSNGKKFDSSHDRNEPFVFSLGKGQVIKAWDIGVATMKKGEICHLLCKPEYAYGSAGSLPKIPSNATLFFEIELLDFKGEDLFEDGGIIRRTKRKGEGYSNPNEGATVEIHLEGRCGGRMFDCRDVAFTVGEGEDHDIPIGIDKALEKMQREEQCILYLGPRYGFGEAGKPKFGIEPNAELIYEVTLKSFEKAKESWEMDTKEKLEQAAIVKEKGTVYFKGGKYMQAVIQYGKIVSWLEMEYGLSEKESKASESFLLAAFLNLAMCYLKLREYTKAVECCDKALGLDSANEKGLYRRGEAQLLMNEFESAKGDFEKVLEVNPQNKAARLQISMCQKKAKEHNERDRRIYANMFKKFAEQDAKEEANKAMGKKTSEGVTNEKGTDSQAMEEEKPEGHV
B10: sp¦Q6IBS0¦TWF2_HUMAN (protein, UniProt Q6IBS0 2-349, looked up)
Twinfilin-2: AHQTGIHATEELKEFFAKARAGSVRLIKVVIEDEQLVLGASQEPVGRWDQDYDRAVLPLLDAQQPCYLLYRLDSQNAQGFEWLFLAWSPDNSPVRLKMLYAATRATVKKEFGGGHIKDELFGTVKDDLSFAGYQKHLSSCAAPAPLTSAERELQQIRINEVKTEISVESKHQTLQGLAFPLQPEAQRALQQLKQKMVNYIQMKLDLERETIELVHTEPTDVAQLPSRVPRDAARYHFFLYKHTHEGDPLESVVFIYSMPGYKCSIKERMLYSSCKSRLLDSVEQDFHLEIAKKIEIGDGAELTAEFLYDEVHPKQHAFKQAFAKPKGPGGKRGHKRLIRGPGENGDDS

What follows are molecules tested on human HL60 cells (assay: SWATH-MS proteomics, differential protein representation, akirin2 KO vs WT HL60 cells). Settings: akirin2 KO vs WT HL60 cells; sheet "Under-represented in KO".
Format: cell-based
Outline: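 Read-out is label-free SWATH-MS protein area, globally normalized to total detected-protein area, with identifications held at 1% FDR against a library from information-dependent acquisition.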

With B1 as the molecule, how does the “Fold Change” value read?
The value was 0.6651.

And the “Log (Fold Change)” value?
Its value is -0.1771.

How did the “Fold Change” value turn out when B2 was run?
Its value is 0.6781.

And the “Log (Fold Change)” value?
Its value is -0.1687.

For B3, which “Fold Change” value is on record?
Its value is 0.6722.

What about the “Log (Fold Change)” value of the same molecule?
The value was -0.1725.

Which “Fold Change” value does the source give for B4 here?
Its value is 0.6651.

What about the “Log (Fold Change)” value of the same molecule?
Its value is -0.1771.

With B5 as the molecule, how does the “Fold Change” value read?
The value was 0.6622.

What about the “Log (Fold Change)” value of the same molecule?
The value was -0.179.

How did the “Fold Change” value turn out when B6 was run?
The value was 0.6611.

What about the “Log (Fold Change)” value of the same molecule?
Its value is -0.1797.

How did the “Fold Change” value turn out when B7 was run?
The value was 0.285.

What about the “Log (Fold Change)” value of the same molecule?
The value was -0.5451.

With B8 as the molecule, how does the “Fold Change” value read?
Its value is 0.6591.

And the “Log (Fold Change)” value?
The value was -0.1811.

B9 was tested. Which “Fold Change” value did it give?
The value was 0.6681.

And the “Log (Fold Change)” value?
The value was -0.1751.

What does the source list for B10?
Fold Change: 0.6717; Log (Fold Change): -0.1728

Reference: PMC8298264, “Function of cofactor Akirin2 in the regulation of gene expression in model human neutrophil-like HL60 cells” (Bioscience Reports, 2021)
